Experimental findings from patent publication US6586658 are described below.

A value given as a limit tells only on which side of the number the result lay.

The target in the data set is FaoA-GUS fusion protein (UniProt P05804).
Sequence of UniProt P05804 (P05804 whole entry, looked up, the tested form may be a part): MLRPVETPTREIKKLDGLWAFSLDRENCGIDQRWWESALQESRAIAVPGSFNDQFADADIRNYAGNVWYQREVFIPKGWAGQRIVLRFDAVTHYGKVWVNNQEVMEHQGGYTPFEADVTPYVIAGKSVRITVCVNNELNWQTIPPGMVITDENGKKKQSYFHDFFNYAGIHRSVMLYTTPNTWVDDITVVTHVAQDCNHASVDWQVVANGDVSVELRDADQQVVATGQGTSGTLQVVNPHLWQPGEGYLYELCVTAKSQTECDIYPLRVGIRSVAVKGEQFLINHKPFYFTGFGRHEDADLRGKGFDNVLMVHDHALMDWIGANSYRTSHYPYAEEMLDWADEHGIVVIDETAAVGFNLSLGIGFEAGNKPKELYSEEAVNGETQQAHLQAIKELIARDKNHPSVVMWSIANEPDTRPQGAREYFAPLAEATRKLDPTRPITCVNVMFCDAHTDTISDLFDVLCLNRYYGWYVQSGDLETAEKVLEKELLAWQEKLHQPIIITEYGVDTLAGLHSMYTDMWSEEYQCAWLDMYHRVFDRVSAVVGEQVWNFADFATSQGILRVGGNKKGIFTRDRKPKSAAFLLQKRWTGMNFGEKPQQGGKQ

On to “FaoB polypeptide of the Pseudomonas putida FaoAB fatty acid oxidation multienzyme complex”, for which the GUS activity (pmol MU/min), OS fraction of flax zygotic embryos, pmfG138:pmf224 (1:1) came to 386 pmol MU/min; the GUS activity (pmol MU/min), OS fraction of flax zygotic embryos, pmfG138:pmf224 (1:3) is 440 pmol MU/min; the GUS activity (pmol MU/min), SN fraction of flax zygotic embryos, pmfG138:pmf224 (1:1) worked out at 175 pmol MU/min; the GUS activity (pmol MU/min), SN fraction of flax zygotic embryos, pmfG138:pmf224 (1:3) stood at 214 pmol MU/min. Moreover, the GUS activity (pmol MU/min), total homogenate of B. napus microspore embryos co-bombarded with pmfG138:pmf224 was determined as 85 pmol MU/min; the GUS activity in a GUS-FaoA fusion, transient expression in embryos was > 2 fold; the GUS specific activity, Ara-FaoA-GUS:pha-FaoB against Ara-FaoA-GUS, background subtracted, B. napus microspore embryos was 2 fold; the Specific activity (activity/mg prt), OS fraction of flax zygotic embryos, pmfG138:pmf224 (1:1) (activity/mg prt) was found to be 52.8. The Specific activity (activity/mg prt), OS fraction of flax zygotic embryos, pmfG138:pmf224 (1:3) (activity/mg prt) was determined as 79; the Specific activity (activity/mg prt), SN fraction of flax zygotic embryos, pmfG138:pmf224 (1:1) (activity/mg prt) was determined as 23.9; the Specific activity (activity/mg prt), SN fraction of flax zygotic embryos, pmfG138:pmf224 (1:3) (activity/mg prt) came out at 38.4; the Specific activity (activity/mg prt), total homogenate of B. napus microspore embryos co-bombarded with pmfG138:pmf224 (activity/mg prt) came out at 29.1.
